This is an account of results in paper PMC8049779 (Biochemistry, 2020).

One data set addresses T1, LmFPPS (Leishmania major, UniProt Q4QBL1).
T1 sequence (Q4QBL1 1-362): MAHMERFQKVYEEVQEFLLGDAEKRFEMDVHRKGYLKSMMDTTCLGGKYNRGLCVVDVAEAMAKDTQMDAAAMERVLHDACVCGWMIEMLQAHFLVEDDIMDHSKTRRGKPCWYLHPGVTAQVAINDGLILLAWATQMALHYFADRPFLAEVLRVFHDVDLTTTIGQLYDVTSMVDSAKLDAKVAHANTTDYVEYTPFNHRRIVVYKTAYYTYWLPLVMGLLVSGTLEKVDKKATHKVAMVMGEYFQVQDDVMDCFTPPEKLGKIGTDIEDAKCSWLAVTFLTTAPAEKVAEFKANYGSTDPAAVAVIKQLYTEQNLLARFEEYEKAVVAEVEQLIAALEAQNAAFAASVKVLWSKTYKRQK
Nature of the data set: SPR, steady-state affinity, protein immobilized on CM5 chip. The class given is binding.

The data set “crystal structure” concerns the molecule itself. Kind of data set: crystal structure.

Regarding `CC(C)=CCC/C(C)=C/CC/C(C)=C/CO[P@@](=O)(O)OP(=O)(O)O` [FPP], on LmFPPS, the dissociation constant Kd worked out at 36.6 µM.
In turn, `CC(C)=CCC/C(C)=C/COP(=O)(O)OP(=O)(O)O` [GPP] yielded a Kd at LmFPPS of 0.049 µM.

B1: E97Y-LmFPPS (Leishmania major farnesyl diphosphate synthase, E97Y mutant) (enzyme)
chain: MAHMERFQKVYEEVQEFLLGDAEKRFEMDVHRKGYLKSMMDTTCLGGKYNRGLCVVDVAEAMAKDTQMDAAAMERVLHDACVCGWMIEMLQAHFLVYDDIMDHSKTRRGKPCWYLHPGVTAQVAINDGLILLAWATQMALHYFADRPFLAEVLRVFHDVDLTTTIGQLYDVTSMVDSAKLDAKVAHANTTDYVEYTPFNHRRIVVYKTAYYTYWLPLVMGLLVSGTLEKVDKKATHKVAMVMGEYFQVQDDVMDCFTPPEKLGKIGTDIEDAKCSWLAVTFLTTAPAEKVAEFKANYGSTDPAAVAVIKQLYTEQNLLARFEEYEKAVVAEVEQLIAALEAQNAAFAASVKVLWSKTYKRQK
Turning to B1, the binding result in the data set “crystal structure” is given as “binds”.

B2: T164W-LmFPPS (Leishmania major farnesyl diphosphate synthase, T164W mutant) (enzyme)
chain: MAHMERFQKVYEEVQEFLLGDAEKRFEMDVHRKGYLKSMMDTTCLGGKYNRGLCVVDVAEAMAKDTQMDAAAMERVLHDACVCGWMIEMLQAHFLVEDDIMDHSKTRRGKPCWYLHPGVTAQVAINDGLILLAWATQMALHYFADRPFLAEVLRVFHDVDLTTWIGQLYDVTSMVDSAKLDAKVAHANTTDYVEYTPFNHRRIVVYKTAYYTYWLPLVMGLLVSGTLEKVDKKATHKVAMVMGEYFQVQDDVMDCFTPPEKLGKIGTDIEDAKCSWLAVTFLTTAPAEKVAEFKANYGSTDPAAVAVIKQLYTEQNLLARFEEYEKAVVAEVEQLIAALEAQNAAFAASVKVLWSKTYKRQK
B2: the binding result in “crystal structure” was “binds”.

B3: T164Y-LmFPPS (Leishmania major farnesyl diphosphate synthase, T164Y mutant) (enzyme)
chain: MAHMERFQKVYEEVQEFLLGDAEKRFEMDVHRKGYLKSMMDTTCLGGKYNRGLCVVDVAEAMAKDTQMDAAAMERVLHDACVCGWMIEMLQAHFLVEDDIMDHSKTRRGKPCWYLHPGVTAQVAINDGLILLAWATQMALHYFADRPFLAEVLRVFHDVDLTTYIGQLYDVTSMVDSAKLDAKVAHANTTDYVEYTPFNHRRIVVYKTAYYTYWLPLVMGLLVSGTLEKVDKKATHKVAMVMGEYFQVQDDVMDCFTPPEKLGKIGTDIEDAKCSWLAVTFLTTAPAEKVAEFKANYGSTDPAAVAVIKQLYTEQNLLARFEEYEKAVVAEVEQLIAALEAQNAAFAASVKVLWSKTYKRQK
Regarding B3, the binding result in “crystal structure” is listed as “binds”.
